Data from article PMC2192576 (1996).

Assays:
[1] = target: T1, influenza virus (A/PR/8/34) HA (hemagglutinin) peptide on HLA-DRA*01:01 / HLA-DRB1*07:01 (human); assay: cytokine release
T1 peptide: PKYVKQNTLKLAT

[2] = target: T2, influenza virus (A/PR/8/34) HA (hemagglutinin) peptide on HLA-DRA*01:01 / HLA-DRB1*04:01 (human); assay: cytokine release
T2 peptide: PKYVKQNTLKLAT

B1: 3BC6.6 TCR (TCR, V domains shown)
Valpha: QSVTQLGSHVSVSEGALVLLRCNYSSSVPPYLFWYVQYPNQGLQLLLKYTSAATLVKGINGFEAEFKKSETSFHLTKPSAHMSDAAEYFCAVSEDTSYDKVIFGPGTSLSVIP
Vbeta: DVKVTQSSRYLVKRTGEKVFLECVQDMDHENMFWYRQDPGLGLRLIYFSYDVEMKEKGDIPEGYSVSREKKERFSLILESASTNQTSMYLCASSLTTSGYTFGSGTRLTVV
B1: no recognition [1]; recognises [2].

B2: JS515.11 TCR (TCR, V domains shown)
Valpha: QSVTQLGSHVSVSEGALVLLRCNYSSSVPPYLFWYVQYPNQGLQLLLKYTTGATLVKGINGFEAEFKKSETSFHLTKPSAHMSDAAEYFCAVSEGGGSEKLVFGKGTKLTVNP
Vbeta: DVKVTQSSRYLVKRTGEKVFLECVQDMDHENMFWYRQDPGLGLRLIYFSYDVEMKEKGDIPEGYSVSREKKERFSLILESASTNQTSMYLCASSPGTSGTTYEQYFGPGTRLTVT
B2: recognises [1]; recognises [2].

B3: hybrid TCR: 3BC6.6 TCRA with JS515.11 TCRB (TCR, V domains shown)
Valpha: QSVTQLGSHVSVSEGALVLLRCNYSSSVPPYLFWYVQYPNQGLQLLLKYTSAATLVKGINGFEAEFKKSETSFHLTKPSAHMSDAAEYFCAVSEDTSYDKVIFGPGTSLSVIP
Vbeta: DVKVTQSSRYLVKRTGEKVFLECVQDMDHENMFWYRQDPGLGLRLIYFSYDVEMKEKGDIPEGYSVSREKKERFSLILESASTNQTSMYLCASSPGTSGTTYEQYFGPGTRLTVT
B3: no recognition [1]; no recognition [2].

B4: JS515.11 TCR with Thr-51 substituted with Ser in CDR2 of the alpha chain (TCR, V domains shown)
Valpha: QSVTQLGSHVSVSEGALVLLRCNYSSSVPPYLFWYVQYPNQGLQLLLKYTSGATLVKGINGFEAEFKKSETSFHLTKPSAHMSDAAEYFCAVSEGGGSEKLVFGKGTKLTVNP
Vbeta: DVKVTQSSRYLVKRTGEKVFLECVQDMDHENMFWYRQDPGLGLRLIYFSYDVEMKEKGDIPEGYSVSREKKERFSLILESASTNQTSMYLCASSPGTSGTTYEQYFGPGTRLTVT
B4: recognises [1].

B5: hybrid TCR: JS515.11 TCRA with 3BC6.6 TCRB (TCR, V domains shown)
Valpha: QSVTQLGSHVSVSEGALVLLRCNYSSSVPPYLFWYVQYPNQGLQLLLKYTTGATLVKGINGFEAEFKKSETSFHLTKPSAHMSDAAEYFCAVSEGGGSEKLVFGKGTKLTVNP
Vbeta: DVKVTQSSRYLVKRTGEKVFLECVQDMDHENMFWYRQDPGLGLRLIYFSYDVEMKEKGDIPEGYSVSREKKERFSLILESASTNQTSMYLCASSLTTSGYTFGSGTRLTVV
B5: no recognition [1]; no recognition [2].

B6: JS515.11 TCR with Gly-52 substituted with Ala in CDR2 of the alpha chain (TCR, V domains shown)
Valpha: QSVTQLGSHVSVSEGALVLLRCNYSSSVPPYLFWYVQYPNQGLQLLLKYTTAATLVKGINGFEAEFKKSETSFHLTKPSAHMSDAAEYFCAVSEGGGSEKLVFGKGTKLTVNP
Vbeta: DVKVTQSSRYLVKRTGEKVFLECVQDMDHENMFWYRQDPGLGLRLIYFSYDVEMKEKGDIPEGYSVSREKKERFSLILESASTNQTSMYLCASSPGTSGTTYEQYFGPGTRLTVT
B6: recognises [1].
